# Positions count from the first letter of the chain named.
# T1: mouse TROP2 (Sino Biological 50922-M08H) (mouse, UniProt Q8BGV3 25-270)
# T1 construct: Bought recombinant protein
# T1 sequence (looked up): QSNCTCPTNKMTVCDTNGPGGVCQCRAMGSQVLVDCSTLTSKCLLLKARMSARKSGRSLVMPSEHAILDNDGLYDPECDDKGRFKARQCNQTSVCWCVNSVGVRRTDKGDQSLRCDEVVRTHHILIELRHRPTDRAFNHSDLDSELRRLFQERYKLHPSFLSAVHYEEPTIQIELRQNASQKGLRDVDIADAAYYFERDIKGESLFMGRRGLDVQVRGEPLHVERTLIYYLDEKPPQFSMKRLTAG
# T2: rat TROP2 (Sino Biological 86246-R08H) (rat, UniProt A0ABK0L8S5 21-268)
# T2 construct: Bought recombinant protein
# T2 sequence: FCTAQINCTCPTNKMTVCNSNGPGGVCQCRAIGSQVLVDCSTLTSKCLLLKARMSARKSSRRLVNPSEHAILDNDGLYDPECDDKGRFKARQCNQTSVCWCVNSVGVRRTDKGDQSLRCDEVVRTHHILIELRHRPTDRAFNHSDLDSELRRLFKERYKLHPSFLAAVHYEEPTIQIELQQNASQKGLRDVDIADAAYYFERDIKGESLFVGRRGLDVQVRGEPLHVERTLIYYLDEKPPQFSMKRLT
# T3: Rhesus Monkey Trop2 protein (Sino Biological 90893-C08H) (rhesus monkey, UniProt A0A5F8AGB8 27-274)
# T3 construct: Bought recombinant protein
# T3 sequence: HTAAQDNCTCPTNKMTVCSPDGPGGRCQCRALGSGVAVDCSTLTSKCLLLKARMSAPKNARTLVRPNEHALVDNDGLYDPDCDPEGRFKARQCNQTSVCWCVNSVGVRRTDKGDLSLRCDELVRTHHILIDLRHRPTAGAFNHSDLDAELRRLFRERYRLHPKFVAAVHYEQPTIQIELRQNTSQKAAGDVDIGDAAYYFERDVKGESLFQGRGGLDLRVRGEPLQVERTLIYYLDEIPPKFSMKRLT
# T4: Recombinant human TROP2 protein (Sino Biological) (human, UniProt P09758 27-274)
# T4 construct: Bought recombinant protein; The two paragraphs give different catalogue numbers; also called TACSTD2
# T4 sequence (looked up): T3 sequence with V36M, N67S, V204I
# T5: human TROP2 protein on the surface of FaDu cells (human, UniProt P09758 27-323)
# T5 construct: whole, on cells; also called TROP2 protein on cell surface; human TROP2 protein at the cellular level
# T5 sequence (looked up): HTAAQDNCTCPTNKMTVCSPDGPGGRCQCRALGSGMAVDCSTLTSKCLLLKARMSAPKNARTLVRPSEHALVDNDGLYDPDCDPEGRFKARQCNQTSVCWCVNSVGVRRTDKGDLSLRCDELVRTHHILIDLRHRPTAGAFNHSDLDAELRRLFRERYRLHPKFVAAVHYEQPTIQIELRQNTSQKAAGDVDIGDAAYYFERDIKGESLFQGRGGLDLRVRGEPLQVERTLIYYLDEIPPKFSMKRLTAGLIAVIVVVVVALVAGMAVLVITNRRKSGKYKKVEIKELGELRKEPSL
# B1: hRS7 antibody (hRS7-IgG1), humanized antibody targeting TROP2 in IgG1 form (antibody, V domains shown)
# VH: QVQLQQSGSELKKPGASVKVSCKASGYTFTNYGMNWVKQAPGQGLKWMGWINTYTGEPTYTDDFKGRFAFSLDTSVSTAYLQISSLKADDTAVYFCARGGFGSSYWYFDVWGQGSLVTVSS
# VL: DIQLTQSPSSLSASVGDRVSITCKASQDVSIAVAWYQQKPGKAPKLLIYSASYRYTGVPDRFSGSGSGTDFTLTISSLQPEDFAVYYCQQHYITPLTFGAGTKVEIKR
# How the values were obtained:
# [1] = mouse, in vivo, 10 mg/kg; cited from earlier work
# [2] = test system: human hypopharyngeal carcinoma squamous cell line FaDu; test: In vitro cytotoxicity test, FaDu cells, 6 days; format: cell-based; settings: 6 days of culture
# Method: (§1) 10% FBS (SH30406.05, HYCLONE) was added to RPMI 1640 (22400-071, Gibco), and the mixture was mixed well to prepare a BxPC3 cell (ATCC) growth medium. BxPC3 or FaDu cells were adjusted to a concentration of 50000 cells/mL with a growth medium, seeded into a 96-well white-bottom plate (167008, NUNC) at 50 µL per well (2500 cells/well), and incubated overnight in an incubator at 37 °C. The antibody was diluted with growth medium and serially diluted 5-fold from 200 nM (2×) to obtain 9 gradients, with the final concentration being […]. The diluted antibody-drug conjugate or control was added at 50 µL/well, and the total volume was 100 µL. […] The cell pellet was fully lysed by shaking on a plate shaker for 5 min, and the luminescence signal was stabilized by standing at room temperature for 10 min. The culture plate was tested on a microplate reader (spectra MAX i3x, Molecular Divices), the […] were taken, and the cell viability was calculated. […]
# (§2) The cell proliferation inhibition rate after 6 days of culture was calculated using the following formula.
# (§3) Cell proliferation inhibition rate (%) = […], where a: the average value of experimental sample-added wells after 6 days of culture; b: the average value of control medium-added wells after 6 days of culture. The data were fitted by GraphPad Prism and the IC50 of the drug was calculated (Table 4).
# [3] = test system: human pancreatic cancer cell line BxPC-3; test: In vitro cytotoxicity test, BxPC3 cells, 6 days; format: cell-based; settings: BxPC3, 6 days of culture
# Method: as §1, §2, §3
# [4] = test system: drug-resistant triple-negative breast cancer (TNBC); settings: patients with drug-resistant triple-negative breast cancer (TNBC); cited from earlier work
# [5] = Days 1 and 8/every 21 days for 4 cycles; EMEA/H/C/005182/0000; cited from earlier work
# [6] = test system: Human gastric cancer cell line NCI-N87; test: Mouse xenograft tumor model NCI-N87; format: in vivo, immunodeficient mice CB17-SCID; settings: intraperitoneal injection
# Method: • 1. Mice: immunodeficient mice CB17-SCID (Vital River) aged 6-8 weeks were placed in an SPF experimental environment for 3-5 days before the experiment to better adapt to the current living environment. In all experiments, the long and short diameters of the tumor were measured twice a week using a vernier caliper, and the tumor volume (mm^3) was calculated from the measured data. The calculation formula is as follows: Tumor volume(mm^3) = 0.5 × long diameter(mm) × short diameter(mm) × short diameter(mm) [formula] • 2. Human gastric cancer cell line NCI-N87 (ATCC) cells were resuspended in 1× PBS (Gibco, 10010049) at an appropriate concentration, and the tumor cells were implanted subcutaneously in the right abdomen of the mice at an inoculation amount of 2×10^6 /mouse. When the tumor volume reached 150-200 mm^3, the mice were divided into groups such that the average initial administration volume of each group was substantially the same. After grouping, different doses of antibody-drug conjugates hRs7-DXd, hRS7-MB3 and hTINA1-DXd, or control-drug conjugates IgG-MB3, IgG-DXd and IgG control were administered by intraperitoneal injection. […] Compared with hRS7-DXd, hRS7-MB3 has a stronger tumor inhibitory effect. […] Non-small cell lung cancer cell line HCC827 cells purchased from ATCC were inoculated subcutaneously into mice (2×10^6 /mouse), and when the tumor volume reached 120-150 mm^3, the mice were grouped and administered. Different doses of the antibody-drug conjugate and the control drug were intraperitoneally injected into the mice, and the administration was performed only once throughout the experiment. The growth status of the mice was observed, and the changes in tumor volume of the mice were measured. […] The lung squamous cell carcinoma cell line LK-2 (CBP60105) purchased from Nanjing Cobioer Biosciences was implanted subcutaneously in the right abdomen of the mice at an inoculation amount of 3 × 10 ^6 cells/mouse. When the tumor volume reached 150-200 mm^3, the mice were divided into groups such that the average initial administration volume of each group was substantially the same. The mice were administered only once throughout the experiment and injected intraperitoneally at a dose of 10 mg/kg. IgG-MB3 or IgG-DXd was used as a negative control. It was observed that two TROP2-targeted ADCs were also able to delay tumor growth in a tumor model with relatively low TROP2 expression (FIG. 7). […] The pancreatic cancer cell line BxPC3 cells purchased from ATCC were implanted subcutaneously in the right abdomen of the mice at an inoculation amount of 3 × 10 ^6 cells/mouse. […]
# [7] = biological target: human TROP2 protein on the surface of FaDu cells (human) (UniProt P09758); test: flow cytometry on FaDu cells, fluorescent secondary antibody
# [8] = biological target: Recombinant human TROP2 protein (Sino Biological) (human) (UniProt P09758); test: BLI (Octet Red96e), antibody on AHC sensor, antigen 100 nM
# [9] = biological target: Rhesus Monkey Trop2 protein (Sino Biological 90893-C08H) (rhesus monkey); test: as above
# [10] = biological target: T1, mouse TROP2 (Sino Biological 50922-M08H); test: BLI (Octet Red96e), antibody on AHC sensor, antigen in solution
# [11] = biological target: T2, rat TROP2 (Sino Biological 86246-R08H); test: as above
# [12] = biological target: T3, Rhesus Monkey Trop2 protein (Sino …); test: BLI (Octet Red96e), antibody on AHC sensor, antigen 100 nM
# [13] = biological target: T4, Recombinant human TROP2 protein (Sino …); test: as above
# [14] = biological target: T5, human TROP2 protein on the surface of …; test: flow cytometry on FaDu cells, fluorescent secondary antibody
molecule,measurement,setting,value
Trodelvy [reference compound],half-life in mice,[1],11 h
same,IC50,[2],0.53 nM
same,IC50,[3],0.42 nM
same,objective response rate (ORR),[4],33%
same,HNSTD,[5],50 mg/kg
"hRS7-DXd: antibody hRS7 conjugated with Linker-DXd, average DAR 4.4 [reference compound]",tumor inhibitory effect,[6]; high-dose group (3 mg/kg),comparable tumor inhibitory effects
same,tumor inhibitory effect,"[6]; low dose (1 mg/kg), compared with IgG-MB3 and IgG-DXd",a certain degree of tumor inhibitory effect
"hTINA1 (the antibody used in Ds-1062), positive control antibody",EC50,[7],1.7 nM
same,Kd,[8],22.8 nM
same,Response,[8],0.284
same,koff,[8],0.0035 s⁻¹
same,kon,[8],154000 M⁻¹ s⁻¹
same,Kd,[9],32.5 nM
same,Response,[9],0.21
same,koff,[9],0.00356 s⁻¹
same,kon,[9],110000 M⁻¹ s⁻¹
B1,binding result,[10],no binding (tested: 100 nM)
same,binding result,[11],no binding (tested: 100 nM)
same,Kd,[12],7.75 nM
same,koff,[12],0.000823 s⁻¹
same,kon,[12],106000 M⁻¹ s⁻¹
same,Kd,[13],4.52 nM
same,koff,[13],0.00056 s⁻¹
same,kon,[13],124000 M⁻¹ s⁻¹
same,EC50,[14],1.58 nM
